The target of experiment [1] is T1, recombinant human CLEC12A-His (human, UniProt Q5QGZ9 65-265).
T1 construct: also called hCLEC12A-His; hCLEC12A
T1 sequence: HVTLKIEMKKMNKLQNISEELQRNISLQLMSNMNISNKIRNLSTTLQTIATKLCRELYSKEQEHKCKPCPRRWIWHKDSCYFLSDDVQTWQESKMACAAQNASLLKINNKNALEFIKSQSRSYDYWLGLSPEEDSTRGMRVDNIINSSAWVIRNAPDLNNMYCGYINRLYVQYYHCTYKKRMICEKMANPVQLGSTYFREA
The experiment in a line: SPR 37C.

In experiment [2] the target is T2, human CLEC12A on cells (HL60, PL21, Ba/F3-hCLEC12A) (human, UniProt Q5QGZ9 1-265).
T2 construct: Endogenous on the AML lines HL60 and PL21; brought into mouse Ba/F3 cells by retroviral transduction; The cell line stands under assay; also called CLL-1
T2 sequence: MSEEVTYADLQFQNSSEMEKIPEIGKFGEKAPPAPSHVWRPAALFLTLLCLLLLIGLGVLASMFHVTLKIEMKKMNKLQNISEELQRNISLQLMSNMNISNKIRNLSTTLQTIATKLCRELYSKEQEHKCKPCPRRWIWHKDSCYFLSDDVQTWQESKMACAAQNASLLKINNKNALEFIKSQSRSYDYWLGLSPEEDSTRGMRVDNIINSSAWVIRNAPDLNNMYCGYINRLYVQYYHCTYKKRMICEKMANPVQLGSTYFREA
The experiment in a line: flow cytometry, HL-60 cells. Background: Flow cytometry measures light scatter and fluorescence of single cells or particles in a stream.

B1: F3'-1602 TriNKET (other)
chain: QLQLQESGPGLVKPSETLSLTCTVSGFSLTNYGLHWIRQPPGKCLEWIGVIWSGGKTDYNPSLKSRVTISKDTSKNQFSLKLSSVQAADTAVYYCAKYDYDDSLDYWGQGTLVTVSSGGGGSGGGGSGGGGSGGGGSDIQMTQSPSSLSASVGDRVTITCHASQNINFWLSWYQQKPGKAPKLLIYEASNLHTGVPSRFSGSGSGTRFTLTISSLQPEDIATYYCQQSHSYPLTFGCGTKLEIKGSDKTHTCPPCPAPELLGGPSVFLFPPKPKDTLMISRTPEVTCVVVDVSHEDPEVKFNWYVDGVEVHNAKTKPREEQYNSTYRVVSVLTVLHQDWLNGKEYKCKVSNKALPAPIEKTISKAKGQPREPRVYTLPPCRDELTKNQVSLTCLVKGFYPSDIAVEWESNGQPENNYKTTPPVLVSDGSFTLYSKLTVDKSRWQQGNVFSCSVMHEALHNHYTQKSLSLSPG
heavy: EVQLVESGGGLVKPGGSLRLSCAASGFTFSSYSMNWVRQAPGKGLEWVSSISSSSSYIYYADSVKGRFTISRDNAKNSLYLQMNSLRAEDTAVYYCARGAPIGAAAGWFDPWGQGTLVTVSSASTKGPSVFPLAPSSKSTSGGTAALGCLVKDYFPEPVTVSWNSGALTSGVHTFPAVLQSSGLYSLSSVVTVPSSSLGTQTYICNVNHKPSNTKVDKKVEPKSCDKTHTCPPCPAPELLGGPSVFLFPPKPKDTLMISRTPEVTCVVVDVSHEDPEVKFNWYVDGVEVHNAKTKPREEQYNSTYRVVSVLTVLHQDWLNGKEYKCKVSNKALPAPIEKTISKAKGQPREPQVCTLPPSRDELTENQVSLTCLVKGFYPSDIAVEWESNGQPENNYKTTPPVLDSDGSFFLYSWLTVDKSRWQQGNVFSCSVMHEALHNHYTQKSLSLSPG
light: DIQMTQSPSSVSASVGDRVTITCRASQGISSWLAWYQQKPGKAPKLLIYAASSLQSGVPSRFSGSGSGTDFTLTISSLQPEDFATYYCQQGVSFPRTFGGGTKVEIKRTVAAPSVFIFPPSDEQLKSGTASVVCLLNNFYPREAKVQWKVDNALQSGNSQESVTEQDSKDSTYSLSSTLTLSKADYEKHKVYACEVTHQGLSSPVTKSFNRGEC
notes: CLEC12A scFv-Fc, NKG2D A49MI Fab-Fc, human IgG1 Fc; also called AB0237
B1: in experiment [1], the “fold lower KD than F3'-1295” value is around 2 fold.

B2: AB0192 TriNKET (other)
chain: EVQLVESGGGVVQPGGSLRLSCAASGFTFNAFGMHWVRQAPGKCLEWVAFISSGSTSIYYANTVKGRFTISRDNSKNTLYLQMNSLRAEDTAVYYCARDGYPTGGAMDYWGQGTSVTVSSGGGGSGGGGSGGGGSGGGGSDIQMTQSPSSLSASVGDRVTITCKASQDIYNYLSWFQQKPGKAPKPLIYRANILVSGVPSRFSGSGSGQDYTFTISSLQPEDIATYYCLQFDAFPFTFGCGTKLEIKGSDKTHTCPPCPAPELLGGPSVFLFPPKPKDTLMISRTPEVTCVVVDVSHEDPEVKFNWYVDGVEVHNAKTKPREEQYNSTYRVVSVLTVLHQDWLNGKEYKCKVSNKALPAPIEKTISKAKGQPREPRVYTLPPCRDELTKNQVSLTCLVKGFYPSDIAVEWESNGQPENNYKTTPPVLVSDGSFTLYSKLTVDKSRWQQGNVFSCSVMHEALHNHYTQKSLSLSPG
heavy: EVQLVESGGGLVKPGGSLRLSCAASGFTFSSYSMNWVRQAPGKGLEWVSSISSSSSYIYYADSVKGRFTISRDNAKNSLYLQMNSLRAEDTAVYYCARGAPIGAAAGWFDPWGQGTLVTVSSASTKGPSVFPLAPSSKSTSGGTAALGCLVKDYFPEPVTVSWNSGALTSGVHTFPAVLQSSGLYSLSSVVTVPSSSLGTQTYICNVNHKPSNTKVDKKVEPKSCDKTHTCPPCPAPELLGGPSVFLFPPKPKDTLMISRTPEVTCVVVDVSHEDPEVKFNWYVDGVEVHNAKTKPREEQYNSTYRVVSVLTVLHQDWLNGKEYKCKVSNKALPAPIEKTISKAKGQPREPQVCTLPPSRDELTENQVSLTCLVKGFYPSDIAVEWESNGQPENNYKTTPPVLDSDGSFFLYSWLTVDKSRWQQGNVFSCSVMHEALHNHYTQKSLSLSPG
light: DIQMTQSPSSVSASVGDRVTITCRASQGISSWLAWYQQKPGKAPKLLIYAASSLQSGVPSRFSGSGSGTDFTLTISSLQPEDFATYYCQQGVSFPRTFGGGTKVEIKRTVAAPSVFIFPPSDEQLKSGTASVVCLLNNFYPREAKVQWKVDNALQSGNSQESVTEQDSKDSTYSLSSTLTLSKADYEKHKVYACEVTHQGLSSPVTKSFNRGEC
notes: the condition stands under assay; also called AB0192 Lot AB0192-005
For the molecule B2, the EC50 (as a rule, the concentration giving half of the maximal effect) in experiment [2] was determined as 0.6 nM.

The record behind these values is patent publication US20220119534A1 (DRAGONFLY THERAPEUTICS, published 2022).
